According to IntAct's records for PubMed 19860830:

B1: Casein kinase I isoform alpha (Oryctolagus cuniculus (Rabbit)), P67828 (parent)
chain: MASSSGSKAEFIVGGKYKLVRKIGSGSFGDIYLAINITNGEEVAVKLESQKARHPQLLYESKLYKILQGGVGIPHIRWYGQEKDYNVLVMDLLGPSLEDLFNFCSRRFTMKTVLMLADQMISRIEYVHTKNFIHRDIKPDNFLMGIGRHCNKLFLIDFGLAKKYRDNRTRQHIPYREDKNLTGTARYASINAHLGIEQSRRDDMESLGYVLMYFNRTSLPWQGLKAATKKQKYEKISEKKMSTPVEVLCKGFPAEFAMYLNYCRGLRFEEAPDYMYLRQLFRILFRTLNHQYDYTFDWTMLKQKAAQQAASSSGQGQQAQTPTGF
partner: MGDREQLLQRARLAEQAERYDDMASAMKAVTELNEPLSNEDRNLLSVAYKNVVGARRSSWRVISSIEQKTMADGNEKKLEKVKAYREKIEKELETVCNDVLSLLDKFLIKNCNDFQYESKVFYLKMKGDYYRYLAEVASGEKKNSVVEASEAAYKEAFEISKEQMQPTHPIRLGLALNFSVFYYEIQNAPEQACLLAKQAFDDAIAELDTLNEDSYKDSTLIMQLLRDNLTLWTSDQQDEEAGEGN

Variants of: B1
Conditions: with 1433f_human YWHAH

**Q.** With MASSSGSKAEFIVGGKYKLVRKIGSGSFGDIYLAINITNGEEVAVKLESQKARHPQLLYESKLYKILQGGVGIPHIRWYGQEKDYNVLVMDLLGPSLEDLFNFCSRRFTMKTVLMLADQMISRIEYVHTKNFIHRDIKPDNFLMGIGRHCNKLFLIDFGLAKKYRDNRTRQHIPYREDKNLTGTARYASINAHLGIEQSRRDDMESLGYVLMYFNRTSLPWQGLKAATKKQKYEKISEKKMATPVEVLCKGFPAEFAMYLNYCRGLRFEEAPDYMYLRQLFRILFRTLNHQYDYTFDWTMLKQKAAQQAASSSGQGQQAQTPTGF [S242A] as the variant, how does the “effect of a mutation on the interaction” value read?
**A.** disrupting interaction

**Q.** With MASSSGSKAEFIVGGKYKLVRKIGSGSFGDIYLAINITNGEEVAVKLESQKARHPQLLYESKLYKILQGGVGIPHIRWYGQEKDYNVLVMDLLGPSLEDLFNFCSRRFTMKTVLMLADQMISRIEYVHTKNFIHRDIKPDNFLMGIGRHCNKLFLIDFGLAKKYRDNRTRQHIPYREDKNLTGTARYASINAHLGIEQSRRDDMESLGYVLMYFNRTALPWQGLKAATKKQKYEKISEKKMSTPVEVLCKGFPAEFAMYLNYCRGLRFEEAPDYMYLRQLFRILFRTLNHQYDYTFDWTMLKQKAAQQAASSSGQGQQAQTPTGF [S218A] as the variant, how does the “effect of a mutation on the interaction” value read?
**A.** disrupting interaction

Variants of: B1
Conditions: with 1433f_human YWHAH
Remark: another data set of the same source

**Q.** MASSSGSKAEFIVGGKYKLVRKIGSGSFGDIYLAINITNGEEVAVKLESQKARHPQLLYESKLYKILQGGVGIPHIRWYGQEKDYNVLVMDLLGPSLEDLFNFCSRRFTMKTVLMLADQMISRIEYVHTKNFIHRDIKPDNFLMGIGRHCNKLFLIDFGLAKKYRDNRTRQHIPYREDKNLTGTARYASINAHLGIEQSRRDDMESLGYVLMYFNRTALPWQGLKAATKKQKYEKISEKKMSTPVEVLCKGFPAEFAMYLNYCRGLRFEEAPDYMYLRQLFRILFRTLNHQYDYTFDWTMLKQKAAQQAASSSGQGQQAQTPTGF [S218A] was tested. Which “effect of a mutation on the interaction” value did it give?
**A.** decreasing interaction
